From the supplement of paper PMC11246515
± gives the standard deviation of the averaged measurements.

Experiment: total protein half-life in vivo (active degradation + dilution); higher = more stable protein
[1] = E. coli NCM3722 delta-clpP delta-lon delta-hslV, growth: N-lim chemostat, doubling time 6 h
[2] = E. coli NCM3722 delta-clpP, growth: N-lim chemostat, doubling time 6 h
[3] = E. coli NCM3722 delta-hslV, growth: N-lim chemostat, doubling time 6 h
[4] = E. coli NCM3722 delta-lon, growth: N-lim chemostat, doubling time 6 h
[5] = E. coli NCM3722 delta-smpB, growth: N-lim chemostat, doubling time 6 h
[6] = wild type E. coli NCM3722, growth: C-lim chemostat, doubling time 3 h
[7] = wild type E. coli NCM3722, growth: C-lim chemostat, doubling time 6 h
[8] = wild type E. coli NCM3722, growth: C-lim chemostat, doubling time 12 h
[9] = wild type E. coli NCM3722, growth: N-lim chemostat, doubling time 6 h
[10] = wild type E. coli NCM3722, growth: N-lim chemostat, doubling time 12 h
[11] = wild type E. coli NCM3722, growth: P-lim chemostat, doubling time 6 h
[12] = wild type E. coli NCM3722, growth: P-lim chemostat, doubling time 12 h

Sequence	total protein half-life in vivo [1]	total protein half-life in vivo [2]	total protein half-life in vivo [3]	total protein half-life in vivo [4]	total protein half-life in vivo [5]	total protein half-life in vivo [6]	total protein half-life in vivo [7]	total protein half-life in vivo [8]	total protein half-life in vivo [9]	total protein half-life in vivo [10]	total protein half-life in vivo [11]	total protein half-life in vivo [12]
MLCVKNVSLRLPESRLLTNVNFTVDKGDIVTLMGPSGCGKSTLFSWMIGALAEQFSCTGELWLNEQRIDILPTAQRQIGILFQDALLFDQFSVGQNLLLALPATLKGNARRNAVNDALERSGLEGAFHQDPATLSGGQRARVALLRALLAQPKALLLDEPFSRLDVALRDNFRQWVFSEVRALAIPVVQVTHDLQDVPADSSVLDMAQWSENYNKLR	6.284 ± 0.01 h	5.73 ± 0.066 h	6.47 ± 0.07 h	6.28 ± 0.58 h	5.27 ± 0.077 h	3.11 ± 0.35 h	6.13 ± 0.53 h	10.8 ± 2.7 h	6.45 ± 0.98 h	12.7 ± 0.24 h	5.99 ± 0.28 h	13.7 ± 0.89 h
MLDANKLQQAVDQAYTQFHSLNGGQNADYIPFLANVPGQLAAVAIVTCDGNVYSAGDSDYRFALESISKVCTLALALEDVGPQAVQDKIGADPTGLPFNSVIALELHGGKPLSPLVNAGAIATTSLINAENVEQRWQRILHIQQQLAGEQVALSDEVNQSEQTTNFHNRAIAWLLYSAGYLYCDAMEACDVYTRQCSTLLNTIELATLGATLAAGGVNPLTHKRVLQADNVPYILAEMMMEGLYGRSGDWAYRVGLPGKSGVGGGILAVVPGVMGIAAFSPPLDEDGNSVRGQKMVASVAKQLGYNVFKG	5.46 ± 0.86 h	5.64 ± 1.6 h	4.65 ± 0.16 h	4.81 ± 0.26 h	4.57 ± 0.085 h	–	> 8 h	10.1 h	4.75 ± 0.39 h	7.14 ± 2.3 h	6.4 ± 0.21 h	12.4 ± 0.65 h
MLDNVLRIATRQSPLALWQAHYVKDKLMASHPGLVVELVPMVTRGDVILDTPLAKVGGKGLFVKELEVALLENRADIAVHSMKDVPVEFPQGLGLVTICEREDPRDAFVSNNYDSLDALPAGSIVGTSSLRRQCQLAERRPDLIIRSLRGNVGTRLSKLDNGEYDAIILAVAGLKRLGLESRIRAALPPEISLPAVGQGAVGIECRLDDSRTRELLAALNHHETALRVTAERAMNTRLEGGCQVPIGSYAELIDGEIWLRALVGAPDGSQIIRGERRGAPQDAEQMGISLAEELLNNGAREILAEVYNGDAPA	3.85 ± 1.1 h	4.24 ± 0.11 h	4.0338 ± 0.0026 h	4.87 ± 0.84 h	4.04 ± 0.045 h	2.81 ± 0.084 h	5.48 ± 0.92 h	–	4.12 ± 0.23 h	7.009 ± 0.051 h	5.475 ± 0.013 h	11.4 ± 0.85 h
MLDPNLLRNEPDAVAEKLARRGFKLDVDKLGALEERRKVLQVKTENLQAERNSRSKSIGQAKARGEDIEPLRLEVNKLGEELDAAKAELDALQAEIRDIALTIPNLPADEVPVGKDENDNVEVSRWGTPREFDFEVRDHVTLGEMHSGLDFAAAVKLTGSRFVVMKGQIARMHRALSQFMLDLHTEQHGYSENYVPYLVNQDTLYGTGQLPKFAGDLFHTRPLEEEADTSNYALIPTAEVPLTNLVRGEIIDEDDLPIKMTAHTPCFRSEAGSYGRDTRGLIRMHQFDKVEMVQIVRPEDSMAALEEMTGHAEKVLQLLGLPYRKIILCTGDMGFGACKTYDLEVWIPAQNTYREISSCSNVWDFQARRMQARCRSKSDKKTRLVHTLNGSGLAVGRTLVAVMENYQQADGRIEVPEVLRPYMNGLEYIG [P0A8L1]	5.7 ± 0.32 h	5.43 ± 0.54 h	5.59 ± 0.06 h	5.511 ± 0.051 h	5.16 ± 0.24 h	3.66 ± 0.21 h	6.43 ± 0.77 h	11.5 ± 0.57 h	5.63 ± 0.29 h	9.239 ± 0.058 h	6.28 ± 0.27 h	13.3 ± 1.1 h
MLDQVCQLARNAGDAIMQVYDGTKPMDVVSKADNSPVTAADIAAHTVIMDGLRTLTPDVPVLSEEDPPGWEVRQHWQRYWLVDPLDGTKEFIKRNGEFTVNIALIDHGKPILGVVYAPVMNVMYSAAEGKAWKEECGVRKQIQVRDARPPLVVISRSHADAELKEYLQQLGEHQTTSIGSSLKFCLVAEGQAQLYPRFGPTNIWDTAAGHAVAAAAGAHVHDWQGKPLDYTPRESFLNPGFRVSIY	4.77 ± 0.078 h	4.77 ± 0.62 h	4.6 ± 0.36 h	5.51 ± 1.2 h	4.29 ± 0.011 h	2.97 ± 0.26 h	5.69 ± 0.6 h	10.58 ± 0.1 h	4.76 ± 0.5 h	7.931 ± 0.051 h	6.3 ± 0.95 h	10.7 ± 0.4 h
MLDTNMKTQLKAYLEKLTKPVELIATLDDSAKSAEIKELLAEIAELSDKVTFKEDNSLPVRKPSFLITNPGSNQGPRFAGSPLGHEFTSLVLALLWTGGHPSKEAQSLLEQIRHIDGDFEFETYYSLSCHNCPDVVQALNLMSVLNPRIKHTAIDGGTFQNEITDRNVMGVPAVFVNGKEFGQGRMTLTEIVAKIDTGAEKRAAEELNKRDAYDVLIVGSGPAGAAAAIYSARKGIRTGLMGERFGGQILDTVDIENYISVPKTEGQKLAGALKVHVDEYDVDVIDSQSASKLIPAAVEGGLHQIETASGAVLKARSIIVATGAKWRNMNVPGEDQYRTKGVTYCPHCDGPLFKGKRVAVIGGGNSGVEAAIDLAGIVEHVTLLEFAPEMKADQVLQDKLRSLKNVDIILNAQTTEVKGDGSKVVGLEYRDRVSGDIHNIELAGIFVQIGLLPNTNWLEGAVERNRMGEIIIDAKCETNVKGVFAAGDCTTVPYKQIIIATGEGAKASLSAFDYLIRTKTA	3.63 ± 0.29 h	2.59 ± 0.18 h	2.67 ± 0.26 h	2.81 ± 0.1 h	2.68 ± 0.052 h	2.949 ± 0.0042 h	4.6889 ± 0.00064 h	7.3 ± 0.34 h	2.56 ± 0.047 h	3.37 ± 0.05 h	5.26 ± 0.2 h	9.723 ± 0.068 h
MLEDLKRQVLEANLALPKHNLVTLTWGNVSAVDRERGVFVIKPSGVDYSVMTADDMVVVSIETGEVVEGTKKPSSDTPTHRLLYQAFPSIGGIVHTHSRHATIWAQAGQSIPATGTTHADYFYGTIPCTRKMTDAEINGEYEWETGNVIVETFEKQGIDAAQMPGVLVHSHGPFAWGKNAEDAVHNAIVLEEVAYMGIFCRQLAPQLPDMQQTLLDKHYLRKHGAKAYYGQ	–	–	–	–	–	–	2.27 h	9.82 h	–	–	–	–
MLEDLRANSWSLRPCCMVLAYRVAHFCSVWRKKNVLNNLWAAPLLVLYRIITECFFGYEIQAAATIGRRFTIHHGYAVVINKNVVAGDDFTIRHGVTIGNRGADNMACPHIGNGVELGANVIILGDITLGNNVTVGAGSVVLDSVPDNALVVGEKARVKVIK [P0ACC9]	–	–	–	7.07 ± 0.2 h	–	–	–	–	–	–	–	–
